Substrate: OC(CS)C(O)CS
Assay: oxygen consumption, Clark-type oxygen electrode
Format: biochemical, Trypanosoma brucei
Conditions: O2 as electron acceptor, air-saturated, 25 °C, 50 nM enzyme, Michaelis-Menten fit of data up to 1 mM DTT (turnover rises beyond the fit above 1 mM)

B1: TbQSOX (Trypanosoma brucei brucei TREU927) (protein)
chain: SVAQVATGSPRPGLFHLDSSVVDLSGDDFSRVHRVAPLCPWIVLFYNDGCGACRRYASTFSKFAGGLKVEHGKDALQIATAAAVNCASEVDLCRKYDINFVPRLFFFYPRDSCRSNEECGTSSLEHVAFENSHLEVDELESEVRRLVNKHMVVDDSLKERCIDMHFKLYTSKEELVKRSVSSTDESGRFVETTELYATDIAGAFFSAMHYDVSLVGTEPRERLTALEDFVLLVKDSLPSIGADGVVSALESITAERPFTVASWQDAVVKSGIPFDGSPRNVRWRTCRGSSPQYRGFPCGMWLLLHALTVNTPADRNVLEVIQNYIRYFFSCKECRDHFIQFNFSPNEDPVLQLWRAHNNVNARLANVKDGADPLVPKRQFPTLEACTECYDGAGNFIEAHVTGFLKQRYLWDPKAVGLMESNDDLNEVDPASKDANVGRNVESSGKGKGDGGARGNSKEVRSDHAG
  Km: 65 ± 10 µM

Reference: article PMC4634331, “Single-molecule spectroscopy exposes hidden states in an enzymatic electron relay” (Nature Communications, 2015)
